Results: patent US10591466B2, “In vitro blood-brain barrier model” (priority 2014, dated 2020)
Where “and” joins values, the source holds several entries; their conditions need not be identical. Equal values may be shown once. Entries after “also recorded” stand apart in the source; their conditions may differ. Read-outs that look alike come from different tables or passages of the source.

B1: VHH A12: alpaca VHH with the sequence of SEQ ID NO:3, selected from an immune library; does not recognize any human brain protein (protein)
VHH: EVQLQASGGGLAQPGGSLRLSVTVSGSIDVINNMAWYRQAPGNARELVATITSGFSTNYASSVKGRFTISRDNAKKAVYLQMNSLKPEDTADYYSKVHLIRLGAARAYDYWGQGTQVTVS

Legend:
[1] = Isoelectric point (pI) of VHH / VHH-comprising polypeptide; assay type: physicochemical
[2] = system: human brain extract (Sg tau 4697); assay: Western blotting of VHH on human brain extract; assay type: binding; settings: VHH 1 μg/ml
Procedure: (§1) The specificity of the VHH of the invention (A12) as compared to a control VHH recognizing brain proteins (H8/E9, identical to VHH E9, Perruchini et al.) was determined by western blotting on 3 different antigens: a human brain extract (Sg tau 4697), a mouse brain extract (Tg 4510) and on a purified protein, GFAP, a specific marker of astrocytes. […] Furthermore, VHH immunohistochemistry was performed from Tg4510 mouse tissues (Grueninger et al, 2010) harbouring NFTs. […] For western blotting, first we performed a polyacrylamide gel electrophoresis at 200 V for 45 min. Then we transferred proteins from gel to nitrocellulose membrane during 1H at 30 V. We saturated nitrocellulose membrane with PBS milk 2% for 1H under stirring. The membrane was then incubated for 1H with selected VHH diluted at 1 μg/ml in PBS milk 2%, and washed 3 times 5 min with PBS Tween. A secondary mouse mAb C23-21 recognizing Strep-tag (DI 2012-32 High-affinity monoclonal anti-Strep-Tag antibody C23.21; Girard-blanc C., Krey T., Vasiliauskaite ieva, Nato F., Lafaye P., Dartevelle S., Rey F.) was added at 1:2500 and incubated 1H at 37° C. Then after additional washes, an anti-mouse mAb labelled with peroxidase was added for 1 H. Three washes of 5 min in PBS Tween were performed.

[3] = system: mouse brain extract (Tg 4510); assay: Western blotting of VHH on mouse brain extract; assay type: binding; settings: VHH 1 μg/ml
Procedure: as §1

[4] = target: GFAP (glial fibrillary astrocytic protein) (Homo sapiens, UniProt P14136); assay: Western blotting of VHH on purified GFAP; assay type: binding; settings: VHH 1 μg/ml
Procedure: as §1

[5] = system: Tg 4510 mouse brain tissue; assay: Immunohistochemistry on Tg 4510 mouse brain sections; assay type: binding; settings: Tg 4510 paraffin-embedded mouse brain sections
Procedure: as §1

Sequence of GFAP (glial fibrillary astrocytic protein) (P14136 whole entry, species assumed): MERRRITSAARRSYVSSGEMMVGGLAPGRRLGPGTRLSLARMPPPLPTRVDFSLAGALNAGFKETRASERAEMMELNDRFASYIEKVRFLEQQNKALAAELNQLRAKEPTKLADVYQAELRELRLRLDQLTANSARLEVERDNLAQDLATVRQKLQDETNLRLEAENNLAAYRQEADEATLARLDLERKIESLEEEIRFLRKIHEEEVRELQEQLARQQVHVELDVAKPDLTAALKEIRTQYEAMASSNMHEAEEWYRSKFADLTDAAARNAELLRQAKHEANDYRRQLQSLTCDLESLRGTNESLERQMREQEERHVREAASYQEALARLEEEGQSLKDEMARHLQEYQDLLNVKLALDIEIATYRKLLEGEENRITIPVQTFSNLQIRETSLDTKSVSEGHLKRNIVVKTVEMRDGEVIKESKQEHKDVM

Row | Molecule | isoelectric point (pI) [1] | isoelectric point (pI) ([1]; listed as SEQ ID NO:3) | reactivity by western blotting against human brain extract [2] | reactivity by western blotting against human brain extract ([2]; listed as VHH A2) | reactivity by western blotting against mouse brain extract [3] | reactivity by western blotting against mouse brain extract ([3]; listed as VHH A2) | reactivity by western blotting against GFAP [4] | reactivity by western blotting against GFAP ([4]; listed as VHH A2) | immunoreactivity / labelling by immunohistochemistry [5]
1 | RRVNRSEPTQHNLRGTGREVSVTPQSGKIISSWEVHGQQTRL [Neurovita 3] | basic |  |  |  |  |  |  |  | 
2 | B1 | 9.78 and > 8.5 and 9.86 | > 9 | does not recognize any human brain protein; also recorded: no reactivity; also recorded: not to recognize any brain protein | no bands were detected | no reactivity; also recorded: not to recognize any brain protein | no bands were detected | no reactivity; also recorded: not to recognize any brain protein | no bands were detected | no immunoreactivity; also recorded: no labelling was observed; also recorded: not to recognize any brain protein
